Assay [1] concerns the target T1, recombinant MS4A4A soluble polypeptide JS1.
T1 construct: also called JS1.His; loop grafted antigen
Kind of assay: ELISA, 1 ug/ml antibody. In a few lines:
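Streptavidin plates are first loaded with biotinylated antigen at 1 μg/ml for 1 hour, then washed. Next, antibodies at 1, 0.33 or 0.11 μg/ml bind for 1 hr at room temperature. Finally, bound antibody is detected with HRP anti-human kappa.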

Assay [2] addresses T2, negative control polypeptide JS4.
T2 construct: negative control for JS1; also called JS4.His
Kind of assay: ELISA, biotin-antigen on streptavidin plate. The method, then: (§1) Anti-MS4A4A antibodies of the present disclosure were tested for their ability to bind to the different recombinant MS4A4A soluble polypeptides, as described in Example 2, as follows. Nucleic acid encoding the VH and VL domains of humanized anti-MS4A4A antibodies of the present disclosure were cloned into pcDNA3.4 vector which contains either the human IgG1 heavy chain constant domain or human kappa constant domain. The humanized anti-MS4A4A antibodies were expressed in Expi293 cells and were purified by Mab select antibody purification resin (GE Healthcare Life Science, cat#17519902) following the manufacture's protocol. ELISA was performed to measure binding of anti-MS4A4A antibodies of the present disclosure the recombinant MS4A4A soluble polypeptides. 1 μg/ml biotinylated antigens were preincubated on the streptavidin-coated ELISA plates (Thermo Scientific, cat#PI15120) for 1 hour. Plates were washed 3 times, followed by the addition of antibodies (1 μg/ml, 0.33 μg/ml, and 0.11 μg/ml antibodies. Plates were incubated at room temperature with shaking for 1 hr, washed 3 times, then 1/2500 dilution of HRP conjugates goat anti human kappa antibodies added (SigmaAldrich cat#. A7164-1ML).
(An ELISA detects its analyte on a solid surface through an enzyme-linked reagent.)

In assay [3] the target is T3, recombinant MS4A4A soluble polypeptide JS5.
T3 construct: also called JS5.His
Kind of assay: ELISA, biotin-antigen on streptavidin plate. The method, then: as §1

The target of assay [4] is T4, recombinant MS4A4A soluble polypeptide JS6.
T4 construct: also called JS6.His
Put plainly: ELISA, biotin-antigen on streptavidin plate. The protocol: as §1

Assay [5] addresses T5, negative control polypeptide JS10.
T5 construct: negative control for JS5 and JS6; also called JS10.His
Put plainly: ELISA, biotin-antigen on streptavidin plate. The protocol:
as §1

Assay [6] deals with T1, recombinant MS4A4A soluble polypeptide …. Put plainly: ELISA, biotin-antigen on streptavidin plate. The protocol:
as §1

Another assay has as its target T6, peptide 4A.3 (human).
T6 peptide: Biotin-CMASNTYGSNPISVY
Put plainly: SPR array, biotin-peptide on streptavidin chip. An excerpt: (§2) A panel of overlapping peptides derived from the extracellular loops (ECLs) of human MS4A4A (SEQ ID NO:1) were synthesized by JPT peptides (Berlin, Germany). These peptides were 15 amino acids in length, each offset by 2 amino acids. The peptides were biotinylated on the N-terminus. Peptides 4A.1 through 4A.4 were derived from human MS4A4A ECL1 and surrounding regions. Peptides 4A.5 through 4A.12 were derived from human MS4A4A ECL2 and surrounding regions.
(§3) The peptide library was printed onto a streptavidin-coated chip (Xantec SAD50M, Dusseldorf, Germany) using the Continuous Flow Microspotter (CFM). […] The peptide library was immobilized onto the chip at 250 nM per peptide diluted into HBS-EP+ buffer (Teknova Cat #H8022) with 1 mg/ml BSA and 1 μg/ml mouse IgG-Biotin. Following immobilization, the chip surface was deactivated with 1M ethanolamine at pH 8.5 for 10 minutes. Hybridoma supernatants and purified anti-MS4A4A antibodies were diluted in HBS-EP+ buffer with 1 mg/ml BSA and injected onto the chip. Duplicate measurements for each anti-MS4A4A antibody were taken to ensure reproducibility. Binding characteristics were determined for each peptide-antibody combination, allowing the mapping of the linear peptide region each antibody interacts with.

The next assay has as its target T7, peptide 4A.6 (human).
T7 peptide: Biotin-FYSFHHPYCNYYGNS
Put plainly: SPR array, biotin-peptide on streptavidin chip.
From the text: as §2, §3

In the next assay the target is T8, peptide 4A.7 (human).
T8 peptide: Biotin-SFHHPYCNYYGNSNN
Kind of assay: SPR array, biotin-peptide on streptavidin chip.
From the text: as §2, §3

A further assay has as its target T9, peptide 4A.4 (human).
T9 peptide: Biotin-ASNTYGSNPISVYIG
Kind of assay: SPR array, biotin-peptide on streptavidin chip.
From the text: as §2, §3

A further assay deals with T10, peptide 4A.5 (human).
T10 peptide: Biotin-LAFYSFHHPYCNYYG
Put plainly: SPR array, biotin-peptide on streptavidin chip.
From the text: as §2, §3

Another assay concerns the target T11, peptide 4A.10 (human, cysteine pairing not given here).
T11 peptide: Biotin-CNYYGNSNNCHGTMS
Put plainly: SPR array, biotin-peptide on streptavidin chip.
From the text: as §2, §3

The target in another assay is T12, peptide 4A.8 (human, cysteine pairing not given here).
T12 peptide: Biotin-HHPYCNYYGNSNNCH
Put plainly: SPR array, biotin-peptide on streptavidin chip.
From the text: as §2, §3

A further assay concerns the target T13, peptide 4A.2 (human).
T13 peptide: Biotin-MMCMASNTYGSNPIS
Put plainly: SPR array, biotin-peptide on streptavidin chip.
From the text: as §2, §3

In the next assay the target is T14, peptide 4A.9 (human, cysteine pairing not given here).
T14 peptide: Biotin-PYCNYYGNSNNCHGT
Put plainly: SPR array, biotin-peptide on streptavidin chip.
From the text: as §2, §3

The next assay has as its target T15, peptide 4A.1 (human).
T15 peptide: Biotin-ITMMCMASNTYGSNP
Put plainly: SPR array, biotin-peptide on streptavidin chip.
From the text: as §2, §3

The target in a further assay is T16, peptide 4A.12 (human).
T16 peptide: Biotin-GNSNNCHGTMSILMG
Kind of assay: SPR array, biotin-peptide on streptavidin chip.
From the text: as §2, §3

In the next assay the target is T17, peptide 4A.11 (human).
T17 peptide: Biotin-YYGNSNNCHGTMSIL
Put plainly: SPR array, biotin-peptide on streptavidin chip.
From the text: as §2, §3

Assay [7] concerns the target T18, huMS4A4A-ECL2 free-peptide (human).
T18 construct: synthetic, free or BSA-conjugated, coated on the plate; also called human MS4A4A ECL2 peptide; huMS4A4A-ELC2 free-peptide
T18 peptide: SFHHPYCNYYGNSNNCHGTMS
Put plainly: peptide ELISA, murine antibody. The method, then: Coated plates were then blocked with ELISA diluent (PBS+0.5% BSA+0.05% Tween20) for 1-hour, washed 3×300 μL in PBST (PBS+0.05% Tween20, Thermo Cat#28352), and then the antibodies were added to the plate ([…]). After 30 mins incubation (room temperature, with shaking), the plates were washed 3×300 μL in PBST. […] After a final set of washes (3×300 μL in PBST), 50 μL of TMB substrate (BioFx Cat#TMBW-1000-01) was added and the reaction was then quenched after 5-10 mins with 50 μL of stop solution (BioFx Cat#BSTP-1000-01). The quenched reaction wells were detected for absorbance at […] with a BioTek Synergy Microplate Reader using GENS 2.04 software.

The target of assay [8] is T3, recombinant MS4A4A soluble polypeptide …. Put plainly: ELISA, 0.4 ug/ml antibody.

No end group written: not given here. *: point of attachment. Biotin = O=C1N[C@H]2[C@H](CS[C@H]2CCCCC(=O)*)N1

B1: anti-MS4A4A antibody 4A-21 (antibody, V domains shown)
VH: QIQLVQSGPELKKPGETVKISCKASGYIFTSYGLSWVKQTPGKGLKWMGWINTYSGVPTYANDFKGRFAFSLETSASTTYLRINNLKNDDTATYFCARSLVDYWGQGTPLTVSS
VL: not shown
notes: murine parental; tested as mouse IgG1 or as human IgG1 Fc chimera (hFc), told under assay; also called 4A-21.hFc
Regarding B1, the OD450 in assay [1] worked out at 1.96; in assay [8], 0.925. In addition, the “ELISA OD” value amounted to 0.138 in assay [2]; 1.73 in assay [3]; 1.67 in assay [4]; 0.112 in [5]; 2.02 in [6]. Also, the SPR binding response with peptide 4A.3 was -10.6; with peptide 4A.6 it was 486; in the assay with peptide 4A.7 it was 446; with peptide 4A.4, -7.9; with peptide 4A.5 it was 383; in the assay with peptide 4A.10, -4.5. For the same molecule, the SPR binding response is 309 with peptide 4A.8; -11.5 with peptide 4A.2; 225 with peptide 4A.9; -11.2 in the assay with peptide 4A.1; -5.2 with peptide 4A.12; -6.5 in the assay with peptide 4A.11. For the same molecule, the binding result in [7] is “binds”.

(Values after patent publication US20210079074A1 (Alector, published 2021).)
